Patent US20240316101

How the values were obtained:
[1] = test system: PEG12-Tregitope peptide (Peg12-Val-Cit-Tregitope-Nle)
[2] = test system: PEG2-Tregitope peptide (KKKK-Peg2-Val-Cit-Tregitope-Nle)

## Recombinant human Cathepsin B (catalog 953-CY of R&D Systems)
[1]
  cleavage of the Val-Cit site, evaluated by mass spec: For the PEG12 product, successful cleavage was demonstrated
[2]
  cleavage of the Val-Cit site, evaluated by mass spec: the PEG2 peptide did not have successful cleavage
